Results: patent publication US20220033491A1, “COMBINATION THERAPY OF CLDN18 ANTIBODY AND CHEMOTHERAPY DRUGS” (CAFA THERAPEUTICS LIMITED, priority 2018, published 2022)

Tests used:
[1] = test system: human gastric cancer PDX-GA0006 model; assay: In vivo efficacy experiment of subcutaneous transplanted tumor in mouse PDX model (Example 2); design: species or system BALB/c nude mice; details: tumors weighed after euthanasia on D51; Ab 40 mg/kg i.p. 3 times a week; epirubicin 1.25 mg/kg, oxaliplatin 3.25 mg/kg, fluorouracil 56.25 mg/kg once a week
Text: A 2×2×2 mm gastric cancer PDX tumor mass was inoculated into BALB/c mice (the day of inoculation was DO). On D27 of subcutaneous inoculation, the tumor volume was 128 mm^3 on average, thereby obtaining the human gastric cancer PDX-GA0006 model, or abbreviated as PDX model. The tumor-forming mice were randomly divided into 6 groups, namely solvent group, antibody group (Ab group), EOF group, EOF+Ab group, OF group, OF+Ab group. During the experiment, the general clinical symptoms of the animals were observed, and the body weight and tumor diameter were measured twice a week. On D51, the mice were euthanized. The manners of administration are listed as follows:
Solvent group: intraperitoneal injection, 3 times a week.
Ab group: antibody against CLD18A2 prepared in Example 1, 40 mg/kg, intraperitoneal injection, 3 times a week.
EOF group: a combination of epirubicin hydrochloride for intraperitoneal injection (1.25 mg/kg)+oxaliplatin for injection (3.25 mg/kg)+fluorouracil injection (56.25 mg/kg), once a week; solvent, intraperitoneal injection, 3 times a week.
EOF+Ab group: EOF (epirubicin hydrochloride (1.25 mg/kg)+oxaliplatin for injection (3.25 mg/kg)+fluorouracil injection (56.25 mg/kg)), once a week, the antibody against CLD18A2 (40 mg/kg), 3 times a week. […]

[2] = test system: human gastric cancer PDX-GA0006 model; assay: Analysis of the administration amount of antibody in tumor-forming PDX mice (Example 3); format: in vivo, BALB/c nude mice; details: AB3 group: 100 mg/kg i.p. 3 times a week for 2 weeks, versus 40 and 70 mg/kg; FIG. 5
Procedure: (§1) According to Example 2, different dosage of antibodies were administered to tumor-forming mice. The administration manners are listed as follows:
(§2) 1. AB1, administered with the antibody against CLD18A2 prepared in Example 1, at a dosage of 40 mg/kg, intraperitoneal injection, 3 times a week for 2 weeks.
(§3) 2. AB2, administered with the antibody against CLD18A2 prepared in Example 1, at a dosage of 70 mg/kg, intraperitoneal injection, 3 times a week for 2 weeks.
(§4) 3. AB3, administered with the antibody against CLD18A2 prepared in Example 1, at a dosage of 100 mg/kg, intraperitoneal injection, 3 times a week for 2 weeks.

[3] = Body weight of mice given different dosages of antibody (Example 3); format: in vivo, BALB/c nude mice; details: 40, 70, 100 mg/kg i.p. 3 times a week for 2 weeks; FIG. 6
Procedure: as §1, §2, §3, §4

B1: Ab: humanized antibody targeting CLD18A2, heavy chain variable region SEQ ID NO: 15, light chain variable region SEQ ID NO: 13 (antibody, V domains shown)
VH: QVQLQESGPGLIKPSQTLSLTCTVSGGSISSGYNWHWIRQPPGKGLEWIGYIHYTGSTNYNPALRSRVTISVDTSKNQFSLKLSSVTAADTAIYYCARIYNGNSFPYWGQGTTVTVSS
VL: DIVMTQSPDSLAVSLGERATINCKSSQSLFNSGNQKNYLTWYQQKPGQPPKLLIYWASTRESGVPDRFSGSGSGTDFTLTISSLQAEDVAVYYCQNAYSFPYTFGGGTKLEIKR
tumor inhibition rate compared with the solvent group (tumor weight) [1]: 1.21% | anti-tumor effects (increase in tumor volume) at different dosages [2]: better anti-tumor effects | change in body weight of mice [3]: no significant change
